“And” between values parts separate entries of the source, which are not always exact repeats. Equal values may be shown once.
Key:
ARM domain of HSF2BP = target: T1, ARM domain of HSF2BP (Homo sapiens, UniProt O75031); experiment: SEC-MALS of ARM free or bound to F15X; format: physicochemical
T1 construct: The armadillo domain of HSF2BP, from aa 122 to aa 334; 6xHis-TEV (N, cleaved yes); made in house; host or cells: E. coli BL21 DE3 Rosetta2
T1 sequence (O75031 122-334): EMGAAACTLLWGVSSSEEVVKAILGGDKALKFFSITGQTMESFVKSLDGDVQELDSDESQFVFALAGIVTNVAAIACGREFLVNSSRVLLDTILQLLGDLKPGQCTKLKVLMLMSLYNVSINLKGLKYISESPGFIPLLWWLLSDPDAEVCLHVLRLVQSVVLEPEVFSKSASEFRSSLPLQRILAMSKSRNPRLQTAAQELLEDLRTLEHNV
Description: Size-exclusion chromatography (SEC) coupled to MALS was used in order to measure the molecular masses of the complexes in solution. Therefore, HSF2BP and ARM proteins were loaded in the presence and absence of the BRCA2 fragment F15X on a Superdex 200 10/300 GL (GE Healthcare) using a HPLC Shimadzu system coupled to MALS/QELS/UV/RI (Wyatt Technology). The chromatography buffer was 25 mM Tris-HCl buffer, pH 7.5, 250 mM NaCl, 5 mM β-mercaptoethanol. The proteins were injected at 0.8–1 mg/ml in 100 μl. Data were analyzed using the ASTRA software; a calibration was performed with BSA as a standard.

BRCA2 (Flag-F9) = experiment: Co-immunoprecipitation of GFP-HSF2BP variants with Flag-BRCA2 F9; format: cell-based, human; settings: transient HEK293T / stable HeLa, anti-GFP beads, immunoblot
Text: Expression constructs for producing point mutation and truncation variants of HS2BP and BRCA2 in human cells were engineered as described before[16] in the PiggyBac vectors by Gibson assembly. For transient expression into HEK293T cells plasmid DNA was transfected using calcium precipitation method or PEI transfection. For stable integration into HeLa cells, PiggyBac expression vectors were co-lipofected together with PiggyBac transposase plasmid (hyPBase[45]) with Lipofectamine 3000 (Thermo Fisher).
Cells were washed twice in ice-cold PBS and lysed in situ in NETT buffer (100 mM NaCl, 50 mM Tris pH 7.5, 5 mM EDTA pH 8.0, 0.5% Triton-X100) supplemented immediately before use with protease inhibitor cocktail (Roche) and 0.4 mg/ml Pefabloc (Roche) (NETT++); 450 µl NETT++ buffer was used per 145 mm dish ES cells, 1 ml for HeLa and HEK293T. After 5–10 min, cells were scraped off and collected in 1.5 ml microcentrifuge tubes; lysis was continued for additional 20–30 min on ice, then mixtures were centrifuged (15 min, 4 °C, 14,000 × g) and the supernatant (input) was added to washed anti-GFP beads (Chromotek). Beads and lysates were incubated 2–4 h at 4 °C while rotating, washed three times in NETT++ buffer and bound proteins were eluted by boiling in 2x Sample buffer. Immunoblotting was performed following standard procedures with the following antibodies: anti-GFP mAb (Roche, #11814460001), anti-GFP pAb (Abcam #ab290 and Invitrogen #A11122), anti-RAD51[46], anti-BRCA2 mAb Ab1 OP-95 (Millipore #OP95), anti-BRCA2 (Abcam #27976), anti-Flag (M2 antibody, Sigma, F3165 and F1804). For quantitative immunoblotting fluorescently labeled secondary antibodies were used: anti-mouse CF680 (Sigma #SAB460199), anti-rabbit CF770 (Sigma #SAB460215); membranes were scanned using Odyssey CLx imaging system (LI-COR).

[1] = target: T2, Human full-length HSF2BP WT (human, UniProt O75031 1-334); experiment: ITC; HSF2BP or ARM in the cell at 10-20 uM, BRCA2 fragment in the syringe at 40-100 uM; 293 K; 25 mM Tris pH 7.5, 250 mM NaCl, 5 mM beta-mercaptoethanol; two replicates; settings: both partners purified
T2 construct: HSF2BP, human, full length, wild type; pETM11 (6xHis-TEV) vector; purified as in Brandsma et al., Cell Rep 2019; also called HSF2BP FL; HFS2BP; source: E. coli BL21 DE3 Rosetta2, purified (HisTrap, TEV cleavage, SEC)
T2 sequence (looked up): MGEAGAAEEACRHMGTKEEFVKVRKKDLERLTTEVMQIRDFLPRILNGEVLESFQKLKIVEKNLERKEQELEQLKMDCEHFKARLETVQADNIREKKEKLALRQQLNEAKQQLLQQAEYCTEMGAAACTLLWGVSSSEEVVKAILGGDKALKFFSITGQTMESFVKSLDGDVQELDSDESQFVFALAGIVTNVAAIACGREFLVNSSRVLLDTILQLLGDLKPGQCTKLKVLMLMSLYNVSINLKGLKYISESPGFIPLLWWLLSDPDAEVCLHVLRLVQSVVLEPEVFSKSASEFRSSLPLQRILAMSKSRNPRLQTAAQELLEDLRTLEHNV

[2] = target: T3, armadillo domain of HSF2BP, from aa 122 to aa 334 (ARM) (human, UniProt O75031 122-334); experiment: as above; settings: both partners purified
T3 construct: Free ARM is a dimer (SEC-MALS); four ARM with two F15X in the complex; A selenomethionine-labelled form was used for the deposited crystal structure; also called HSF2BP ARM; H3 (recombinant); source: E. coli BL21 DE3 Rosetta2, purified (HisTrap, TEV cleavage, SEC)
T3 sequence (looked up): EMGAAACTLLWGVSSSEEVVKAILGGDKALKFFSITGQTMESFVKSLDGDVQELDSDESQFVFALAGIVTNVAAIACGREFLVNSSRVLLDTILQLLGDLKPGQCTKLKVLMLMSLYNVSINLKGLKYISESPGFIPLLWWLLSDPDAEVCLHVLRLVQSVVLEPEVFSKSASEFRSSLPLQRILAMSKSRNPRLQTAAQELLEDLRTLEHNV

[3] = target: T4, Human full-length HSF2BP WT (human), O75031; experiment: as above
T4 chain: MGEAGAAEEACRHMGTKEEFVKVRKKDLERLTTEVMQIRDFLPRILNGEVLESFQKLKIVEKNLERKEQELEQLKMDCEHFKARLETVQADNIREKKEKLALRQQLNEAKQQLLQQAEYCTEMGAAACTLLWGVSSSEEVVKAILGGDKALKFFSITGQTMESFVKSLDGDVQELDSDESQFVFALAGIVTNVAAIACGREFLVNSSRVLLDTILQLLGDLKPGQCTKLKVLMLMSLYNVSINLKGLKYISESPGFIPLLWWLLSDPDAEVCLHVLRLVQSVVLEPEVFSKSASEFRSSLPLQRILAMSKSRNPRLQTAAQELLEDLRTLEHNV

B1: H3: HSF2BP fragment E122-V334, armadillo domain (protein)
chain: EMGAAACTLLWGVSSSEEVVKAILGGDKALKFFSITGQTMESFVKSLDGDVQELDSDESQFVFALAGIVTNVAAIACGREFLVNSSRVLLDTILQLLGDLKPGQCTKLKVLMLMSLYNVSINLKGLKYISESPGFIPLLWWLLSDPDAEVCLHVLRLVQSVVLEPEVFSKSASEFRSSLPLQRILAMSKSRNPRLQTAAQELLEDLRTLEHNV
modifications: left off: His6, end not stated, cleaved
notes: HSF2BP fragment E122-V334, armadillo domain
oligomeric state of ARM (ARM domain of HSF2BP; SEC-MALS and SEC-SAXS): dimeric | molecular weight of species in solution (ARM domain of HSF2BP; SEC-MALS, Superdex 200 10/300 GL, 25 mM Tris-HCl pH 7.5, 250 mM NaCl, 5 mM β-mercaptoethanol): 48 kDa | binding to BRCA2 (co-precipitation) (BRCA2 (Flag-F9)): minimal interaction region

B2: Human BRCA2 fragment F0 (S2213-Q2342, C2332T) (domain or fragment, UniProt P51587 2213-2342, looked up)
chain: STYSKDSENYFETEAVEIAKAFMEDDELTDSKLPSHATHSLFTCPENEEMVLSNSRIGKRRGEPLILVGEPSIKRNLLNEFDRIIENQEKSLKASKSTPDGTIKDRRLFMHHVSLEPITTVPFRTTKERQ
notes: BRCA2, human, residues 2213-2342 with C2332T; pET-22b fusion: BRCA2 fragment, TEV site, GB1, 6xHis; residues of the TEV site may remain at the C-terminus after cleavage (surmise); 15N- or 15N/13C-labelled for NMR; also called BRCA2-F0; source: E. coli BL21 DE3 Star, purified (HisTrap, TEV cleavage, SEC); not shown: GB1, C-terminal, cleaved; His6, C-terminal, cleaved
Kd [1]: 1.3 nM | dH [1]: -11 kcal/mol and -10.9 kcal/mol | stoichiometry N [1]: 0.43 and 0.47 | Kd [2]: 31 nM and 25 nM | dH [2]: -8.3 kcal/mol and -11.9 kcal/mol | stoichiometry N [2]: 0.45 and 0.49

B3: BRCA2 peptide F15X∆12 (D2312-E2342) (peptide)
chain: DGTIKDRRLFMHHVSLEPITTVPFRTTKERQ
modifications: not checked
Kd [3]: 2100 nM and 1500 nM | dH [3]: -1.8 kcal/mol and -1.7 kcal/mol | stoichiometry N [3]: 0.9 and 0.89

Reference: publication PMC8322138, “BRCA2 binding through a cryptic repeated motif to HSF2BP oligomers does not impact meiotic recombination” (Nature Communications, 2021)
